The chains are these.
B1: 261 (protein)
chain: MGHHHHHHGGSVSDVPRDLEVVAATPTSLLISWEYKVAPWRYYRITYGETGGNSPVQEFTVPSVLSTATISGLKPGVDYTITVYAVTYGDDSAPISINYRTEID
modifications: Adnectin
B2: 269 (protein)
chain: MGHHHHHHGGSVSDVPRDLEVVAATPTSLLISWEYKVHPYRYYRITYGETGGNSPVQAFTVPSVLSTATISGLKPGVDYTITVYAVTYGDDSAPISINYRTEID
modifications: Adnectin
B3: 263 (protein)
chain: MGHHHHHHGGSVSDVPRDLEVVAATPTSLLISWEYKVDTWRYYRITYGETGGNSPVQEFTVPSVLSTATISGLKPGVDYTITVYAVTYGDDSAPISINYRTEID
modifications: Adnectin
B4: 267 (protein)
chain: MGHHHHHHGGSVSDVPRDLEVVAATPTSLLISWEYKVHPYRYYRITYGETGGNSPVQDFTVPSVLSTATIRGLKPGVDYTITVYAVTYGDDSAPISINYRTEID
modifications: Adnectin
B5: 277 (protein)
chain: MGHHHHHHGGSVSDVPRDLEVVAATPTSLLISWEYKVHPYRYYRITYGETGGNSPVQDFTVPSVLSTATISGLKPGVDYTITVYAVTYGDDSAPISINYRTEID
modifications: Adnectin
B6: 279 (protein)
chain: MGHHHHHHGGSVSDVPRDLEVVAATPTSLLISWEYKVDHQRYYRITYGETGGNSPVQEFTVPSVLSTATISGLKPGVDYTITVYAVTYGDDSAPISINYRTEID
modifications: Adnectin
B7: 289 (protein)
chain: MGHHHHHHGGSVSDVPRDLEVVAATPTSLLISWEYGVHPYRYYRITYGETGGNSPVQEFTVPSVLSTATISGLKPGVDYTITVYAVTYGDDSAPISINYRTEID
modifications: Adnectin
B8: 282 (protein)
chain: MGHHHHHHGGSVSDVPRDLEVVAATPTSLLISWEYSVHPYRYYRITYGETGGNSPVQEFTVPSVLSTATISGLKPGVDYTITVYAVTYGDDSAPISINYRTEID
modifications: Adnectin
B9: 273 (protein)
chain: MGHHHHHHGGSVSDVPRDLEVVAATPTSLLISWEYEVHPYRYYRITYGETGGNSPVQEFTVPSVLSTATISGLKPGVDYTITVYAVTYGDDSAPISINYRTEID
modifications: Adnectin
B10: 281 (protein)
chain: MGHHHHHHGGSVSDVPRDLEVVAATPTSLLISWKYGVHPYRYYRITYGETGGNSPVQEFTVPSVLSTATISGLKPGVDYTITVYAVTYGDDSAPISINYRTEID
modifications: Adnectin
B11: 286 (protein)
chain: MGHHHHHHGGSVSDVPRDLEVVAATPTSLLISWEYKVAAWRYYRITYGETGGNSPVQEFTVPSVLSTATISGLKPGVDYTITVYAVTYGDDSAPISINYRTEID
modifications: Adnectin
B12: 275 (protein)
chain: MGHHHHHHGGSVSDVPRDLEVVAATPTSLLISWEYKVHPYRYYRITYGETGGNSPVQSFTVPSVLSTATISGLKPGVDYTITVYAVTYGADSAPISINYRTEID
modifications: Adnectin
B13: 276 (protein)
chain: MGHHHHHHGGSVSDVPRDLEVVAATPTSLLISWEYKVHPYRYYRITYGETGGNSPVQEFTVPSVLSTATIRGLKPGVDYTITVYAVTYGDDSAPISINYRTEID
modifications: Adnectin
B14: 288 (protein)
chain: MGHHHHHHGGSVSDVPRDLEVVAATTTSLLISWEYKVDYHRYYRITYGETGGNSPVQEFTVPSVLSTATISGLKPGVDYTITVYAVTYGDDSAPISINYRTEID
modifications: Adnectin
B15: 265 (protein)
chain: MGHHHHHHGGSVSDVPRDLEVVAATPTSLLISWEYKVHPYRYYRITYGETGGNSPVQEFTVPSVLSTATISGLKPGVDYTITVYAVTYGADSAPISINYRTEID
modifications: Adnectin
B16: 262 (protein)
chain: MGHHHHHHGGSVSDVPRDLEVVAATPTSLLISWEYKVDGWRYYRITYGETGGNSPVQEFTVPSVLSTATISGLKPGVDYTITVYAVTYGDDSAPISINYRTEID
modifications: Adnectin
B17: 285 (protein)
chain: MGHHHHHHGGSVSDVPRDLEVVAATPTSLLISWEYKVHPYRYYRITYGETGGNSPVQEFTVPSVLSSATLRGLKPGVDYTITVYAVTYGDDSAPISINYRTEID
modifications: Adnectin
B18: 272 (protein)
chain: MGHHHHHHGGSVSDVPRDLEVVAATPTSLLISWEYKVDTYRYYRITYGETGGNSPVQEFTVPSVLSTATISGLKPGVDYTITVYAVTYGDDSAPISINYRTEID
modifications: Adnectin
B19: 278 (protein)
chain: MGHHHHHHGGSVSDVPRDLEVVAATPTSLLISWEYKVARWRYYRITYGETGGNSPVQEFTVPSVLSTATISGLKPGVDYTITVYAVTYGDDSAPISINYRTEID
modifications: Adnectin
B20: 283 (protein)
chain: MGHHHHHHGGSVSDVPRDLEVVAATPTSLLISWEYKVHPYRYYRITYGETGGNSPVQEFTVPSVLSTATISGLKPGVDYTITVYAVTDGDDSAPISINYRTEID
modifications: Adnectin
B21: 280 (protein)
chain: MGHHHHHHGGSVSDVPRDLEVVAATPTSLLISWEYKVDYGRYYRITYGETGGNSPVQEFTVPSVLSTATISGLKPGVDYTITVYAVTYGDDSAPISINYRTEID
modifications: Adnectin
B22: 287 (protein)
chain: MGHHHHHHGGSVSDVPRDLEVVAATPTSLLISWEYKVATWRYYRITYGETGGNSPVQEFTVPSVLSTATISGLKPGVDYTITVYAVTYGDDSAPISINYRTEID
modifications: Adnectin
B23: 130 (protein)
chain: MGHHHHHHGGSVSDVPRDLEVVAATPTSLLISWEYNVHYDRYYRITYGETGGNSPVQEFTVPSVLSTATISGLKPGVDYTITVYAVTDGVHSSPISINYRTEID
modifications: Adnectin
B24: 291 (protein)
chain: MGHHHHHHGGSVSDVPRDLEVVAATPTSLLISWEYKVHPYRYYRITYGETGGNSPVQEFTVPSVLSTATISGLKPGVDYTITVYAVTGGDDSAPISINYRTEID
modifications: Adnectin
B25: 266 (protein)
chain: MGHHHHHHGGSVSDVPRDLEVVAATPTSLLISWEYKVHPYRYYRITYGETGGNSPVQEFTVPSVLSTATISGLKPGVDYTITVYAVTRGDDSAPISINYRTEID
modifications: Adnectin
B26: 270 (protein)
chain: MGHHHHHHGGSVSDVPRDLEVVAATPTSLLISWEYKVAPYRYYRITYGETGGNSPVQEFTVPSVLSTATISGLKPGVDYTITVYAVTYGDDSAPISINYRTEID
modifications: Adnectin
B27: 131 (protein)
chain: MGHHHHHHGGSVSDVPRDLEVVAATPTSLLISWEYKVHPYRYYRITYGETGGNSPVQEFTVPSVLSTATISGLKPGVDYTITVYAVTYGDLSAPISINYRTEID
modifications: Adnectin
B28: 284 (protein)
chain: MGHHHHHHGGSVSDVPRDLEVVAATPTSLLISWEYKVHPYRYYRITYGETGGNSPVQEFTVPSVLSTATISGLKPGVDYTITVYAVTSGDDSAPISINYRTEID
modifications: Adnectin
B29: 271 (protein)
chain: MGHHHHHHGGSVSDVPRDLEVVAATPTSLLISWEYKVDGYRYYRITYGETGGNSPVQEFTVPSVLSTATISGLKPGVDYTITVYAVTYGDDSAPISINYRTEID
modifications: Adnectin
B30: 274 (protein)
chain: MGHHHHHHGGSVSDVPRDLEVVAATPTSLLISWEYRVHPYRYYRITYGETGGNSPVQEFTVPSVLSTATISGLKPGVDYTITVYAVTYGDDSAPISINYRTEID
modifications: Adnectin
B31: 129 (protein)
chain: MGVSDVPRDLEVVAATPTSLLISWEYKVHPYRYYRITYGETGGNSPVQEFTVPSVLSSAEISGLKPGVDYTITVYAVTYGIDSPPISINYRTEIDKPSQHHHHHH
modifications: Adnectin
B32: 115 (protein)
chain: MGVSDVPRDLEVVAATPTSLLISWEYKVNNYRYYRITYGETGGNSPVQEFTVPSVLSTATISGLKPGVDYTITVYAVTYGVHSSPISINYRTEIDKPSQHHHHHH
modifications: Adnectin
B33: 128 (protein)
chain: MGHHHHHHGGVSDVPRDLEVVAATPTSLLISWEYKVHPYRYYRITYGETGGNSPVQEFTVPSVLSSAEISGLKPGVDYTITVYAVTYGIDSSPISINYRTPGG
modifications: Adnectin

For this test, the system named is NL-Rluc virus. Nature of the test: Combinectin potency assay: antiviral EC50, NL-Rluc virus in MT-2 cells, luciferase readout. Format: cell-based, HIV-1. Conditions: Anti-N17 Adnectin, Table 3. Put shortly: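 MT-2 cells infected with replication-competent NL-Rluc HIV (nef replaced by Renilla luciferase) at MOI 0.01 for 1 h, then added to threefold-diluted peptides (11 concentrations, triplicate). After 4–5 days, luciferase measured by Dual Luciferase; EC50 relative to no-peptide wells.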
Take B1: the EC50 (commonly the concentration that produces a half-maximal response) was more than 1000 nM. In the case of B2 it was 184 nM. Take B3: the EC50 was more than 1000 nM. With B4, the EC50 was more than 1000 nM. For B5, the EC50 was more than 1000 nM. Regarding B6, the 50% effective concentration (EC50) is more than 1000 nM.

Take B7: the EC50 is more than 1000 nM. For the molecule B8, the EC50 stood at 56 nM. In the case of B9, the concentration for a half-maximal effect (EC50) was more than 1000 nM. As for B10, the EC50 is more than 1000 nM. As for B11, the figure is more than 1000 nM; as for B12, 180 nM. With B13, the EC50 stood at 16 nM. In the case of B14 it was more than 1000 nM.

For the molecule B15, the concentration giving a half-maximal response (EC50) was 63 nM. Take B16: the EC50 was more than 1000 nM.

Turning to B17, the EC50 came to 397 nM. For B18, the EC50 was more than 1000 nM. As for B19, the figure is more than 1000 nM; as for B20, more than 1000 nM; as for B21, more than 1000 nM. On to B22, for which the EC50 was more than 1000 nM. For B23, the EC50 amounted to 42 nM. B24: the EC50 was more than 1000 nM.

Regarding B25, the EC50 was more than 1000 nM. For B26, the EC50 was more than 1000 nM. As to B27, the EC50 is 5 nM. B28: the EC50 was more than 1000 nM. As for B29, the figure is more than 1000 nM; as for B30, 115 nM. As for B31, the concentration for a half-maximal effect (EC50) worked out at 11 nM. As to B32, the EC50 is 130 nM. Take B33: the EC50 was 18 nM.

(Values after patent US11155602B2, “Polypeptides targeting HIV fusion” (priority 2015, dated 2021).)
